The data set in a line: soluble on expression in E. coli; label from the status in PepcDB or PDB records.
As for “PDAPRNLQLSLPREAEGVIVGHWAPPIHTHGLIREYIVEYSRSGSKMWASQRAASNFTEIKNLLVNTLYTVRVAAVTSRGIGNWSDSKSITTIKG”, the “soluble on expression in E. coli” value is “soluble”. Then “MIVIKTYQEENASALWDVFFNTVRKVNRKDYSNEQVTAWAPESFDTDVWKNKMQSLNPFIAEIDGVIVGYSDLQDDGLIDHFFCHYQHQGKGVGSALMTHILELAKERKLPRVYSHVSITAKPFYERFGFTVVKPQCIDVRGEQLINYVMERQ”, with “not soluble”. As to “MGSDKIHHHHHHMEAKWLEDFLSLADTKSFSRAARHRHLTQSAFSRRIAALETWMDAKLVDRSINPITLTPAGQMFRGLAADILRSMYAARNLVNGYDQFAASDQVVRFAVAHTLVFTLFPEWLKQLNGEVGHVTARVNAVNVPEGVQQLVEGECDLLLGYHHPQLPIVLDPNHFPFVTLGVERILPVSTPDAHGRPVFELPGAPDAPLPLLAYSSGAFLGNVVEMLLLNASESYALHRCFETHMSEALKGMVVAGHGIGWLPESCVAKELAEGSLVRAGSADWITELEIRLYRSARKRGLAAEQLWTYIMNRPRTAADGLVAAEPGAPAVRIARRSVGGSR”, the “soluble on expression in E. coli” value is reported as “not soluble”.

For “QLPTIYAITPTYSRPVQKAELTRLANTFRQVAQLHWILVEDAAARSELVSRFLARAGLPSTHLHVPTPRRYKRPGLPRATEQRNAGLAWLRQRHQHQRAQPGVLFFADDDNTYSLELFQEMRTTRKVSVWPVGLVGGRRYERPLVENGKVVGWYTGWRADRPFAIDMAGFAVSLQVILSNPKAVFKRRGSQPGMQESDFLKQITTVEELEPKANNCTKVLVWHTRTEKVNLANEPKYHLDTVKIEV”, the “soluble on expression in E. coli” value is “soluble”.

With “MKRCLDKGKTMDALKHALQMLNEMRTAELSPKFYYRLYMDSMHELQCLEVNLVQEYAQEPAKLGNLYECVQYASAIIPRLYLLVTIGGVFIKCGLGSRKEILKDLVEMCRGVQHPLRGLFLRNYLMQCTRSVLPDFPETEEMLVAHNDNLSKGTPKLKPRDGTVDDTIDFVLINFAEMNKLWVRMQHQGPSKEKEKREKDRMELRILVGTNLVRLAQLEALTEEMYVKDVLPSILEQIVSCRDPISQEYLMECVIQVFADDFHLATLTEFLNACGQLQQDVNIKILLIALVDRLALYTTSYNEGQPAPTKMQLFEIFSEQATTLIKNRPDMPLDDIVALHVSLVSLAVKCYPDRQDYANMTFQGLRQVIEEKGVTDIEAFGKVGRELTKLLNIPIDEYKNVLRLSQLPEYIKVMNYFDYRGQCNIASYMIQNMLEEETVFRNQDDVDSAFSLISSLLKDQEKQSSDSHETEEFADEQNLVARLLHLIRADDVDSQFLLLNSARKTLGEGGRHRLRYTLPPIIFELYRLVLQFSDMKDEDDKWDAKIRKMFVCAMGTIGALVSTAELAELPMKLYLNGAITADRVPFEDNHTVVYEFVSKALSILEDDVVDSRDRVRCLHLTVGTLLKTTHLPEENWQPLANQTVLAAAKMFKKPDQVRSLVTVAALYWHGQTLETNGEKMKNGKKVVDILRKAAKIARECLEPLVQQQLFIQLLSAYTYYYEDNCSEVNVDHIEELIARTQDNAVQLDVSAEADSLEKQLGEAIRRLQLAKLDVAAAQATTIRSEPELPQPPS”, the “soluble on expression in E. coli” value was “soluble”. As to “MGHHHHHHSHMADDIDIEAMLEAPYKKDENKLSSANGHEERSKKRKKSKSRSRSHERKRSKSKERKRSRDRERKKSKSRERKRSRSKERRRSRSRSRDRRFRGRYRSPYSGPKFNSAIRGKIGLPHSIKLSRRRSRSKSPFRKDKSPVREPIDNLTPEERDARTVFCMQLAARIRPRDLEEFFSTVGKVRDVRMISDRNSRRSKGIAYVEFVDVSSVPLAIGLTGQRVLGVPIIVQASQAEKNRAAAMANNLQKGSAGPMRLYVGSLHFNITEDMLRGIFEPFGRIESIQLMMDSETGRSKGYGFITFSDSECAKKALEQLNGFELAGRPMKVGHVTERTDASSASSFLDSDELERTGIDLGTTGRLQLMARLAEGTGLQIPPAAQQALQMSGSLAFGAVAEFSFVIDLQTRLSQQTEASALAAAASVQPLATQCFQLSNMFNPQTEEEVGWDTEIKDDVIEECNKHGGVIHIYVDKNSAQGNVYVKCPSIAAAIAAVNALHGRWFAGKMITAAYVPLPTYHNLFPDSMTATQLLVPSRR”, the “soluble on expression in E. coli” value was “soluble”. As to “MQYINYRENRRRGTADFPLEYYHVTASHPQYVMSFHWHVEFELIRILSGSLTVTIDEIEFLAEAGDSIFIPAGSIHSGIPDDCVYECLVFDMNMLMNKTDSCCRFLRQITDHEVSVQTHYPKICNTIHRTLWTLFDAAASKKEGYQLVVFGAMYQFFGTLFSEGFCKNAPDEEHRSHKRILQLKQALEFMESSYNLPLTLEEISGSVNMSPKYFCRFFHEMTHRTPIDYLNYYRIERACYQLITTNLSITEIAYASGFNDLSYFIKTFKKYKGTTPKKYLKI”, the “soluble on expression in E. coli” value was “not soluble”. Then “MQSRQRLLISVLAAGESRRFQGAKLAQSLATSTSEDRGQSLLQRHIACLANFIVSPNDRRESLGALDAELLVVIGAHQTLLRPQLEALGAVKLTLLDNPHWRTGLASSLGVAAAYAKVHQFDGMLLTLADQVALTLNDYRQLIETWQNCRKSVAAHYSSQIGELDELGAPAIFNASILDSLTDLTGDRGAKSILKQLAYVGELEAVALPNAAIDIDTKADLALWLALKELEHHHHHH”, with “not soluble”. Next, “MGSDKIHHHHHHMKYILVTGGVISGIGKGVIASSVGTILKSCGLHVTSIKIDPYINIDAGTFSPYEHGEVFVLDDGGEVDLDLGNYERFLDIRLTKDNNLTTGKIYQYVINKERKGDYLGKTVQVVPHITDAIQEWVMRQALIPVDEDGLEPQVCVIELGGTVGDIESMPFIEAFRQFQFKVKRENFCNIHVSLVPQPSSTGEQKTKPTQNSVRELRGLGLSPDLVVCRCSNPLDTSVKEKISMFCHVEPEQVICVHDVSSIYRVPLLLEEQGVVDYFLRRLDLPIERQSRKMLMKWKEMADRYDRLLETCSIALVGKYTKFSDSYASVIKALEHSALAINHKLEIKYIDSTDLEPSTLQEEPVRYHEAWQKLCSAHGVLVPGGFGVRGTEGKIQAIAWARKQKKPFLGVCLGMQLAVVEFSRNVLGWQDANSTEFDPKTSHPVVIDMPEHNPGQMGGTMRLGKRRTLFQTKNSVMRKLYGDTDYLEERHRHRFEVNPVLKKCLEEQGLKFVGQDVEGERMEIVELEDHPFFVGVQYHPEFLSRPIKPSPPYFGLLLASVGRLPHYLQKGCRLSPRDTYSDRSGSSSPDSEITELKFPSISQD”: “not soluble”. Regarding “MGSDKIHHHHHHMMFGKSCQVMVKPTGSVCNLDCKYCFYLEKEKLYPDRKNHYKMSEETLELFIRQQIAAQDIDEVIFAWQGGEPTLMGIPFYRKAVEFQQRYCGGKTIVNTFQTNGILINDDWATFFREHDFLVGVSIDGDAALHDEWRVTRSGKPTHEKVENAVRCLAQHDVEFNTLTVVNRTNMHHPVQVYRYLKSIGSRYMQFIPLVERCGENGLAQPQDKHIAMTPWSVDSLQFGQFLNAVFDIWIREDIGDIGIQLFEQTLAAWCGLPPQVCVFAPTCGSAFAMEMNGDVYNCDHFVYPQFKLGNIHQKTLRQMNQGEQNRQFGSDKQRSMAQECHRCQWKFACYGGCPKHRFLPSASGATNHNYLCAGYQAFFSHTATAMSAMRTLYEKGISPAEIKSIFV”, the “soluble on expression in E. coli” value was “not soluble”. Next, DHYNCVSSGGQCLYSACPIFTRIQGTCYRGRARCCR: “soluble”. Next, “MTIENDYAKLKELMEFPAKMTFKVAGINREGLAQDLIQVVQKYIKGDYIPKEKRSSKGTYNSVSIDIIAENFDQVETLYKELAKVEGVKMVI”: “not soluble”; “VKNFEWKTIFNWSKNNSMVESLPEGIDKIQIGSGVYNVKSYAEVGKPYGAIYAKTFKRDAEGYILCQLDGSPKEGQDYEYLGCVQADWRGGWNNVFRLGNFSFSVMFDFQKGGKFFSQTSIQSSVDGQSVKSLEGRDADFFSRKILGESDEERYGFMRPQNANTPTANGQIYPDWGRPKGVVLPNCRYDEDVEGLAGQQVLGYCTPERYWMHYTSRDISRFIYDASYVKLREITVSYDLPKKWLRKTPFQTFRVAAVGRNIATLFANTPHGLDPQATSTTGNAQGFERGFNLPSATYGFDIKVSF”: “not soluble”. Then “MGSDKIHHHHHHMLAVEMRRIYKVYPDGVVALKGVDFTVEEGEIHGLLGENGAGKSTLMRILYGEIKPTKGEVKVFGDKVEFNGPWDAIRKGIAMVYQHFTLIPTFTVLENLYLSMLTINPNITINEVRKLAKEKMKDIGFSVPLDDVVEDLPIGIQQRVEIIKALMANAKILILDEPTSVLTPLEVEELFKTLRKLKENGITVIFITHKLKEVKEITDRVTVLRRGEVVGVAKTKEVSERDLAKMMVQREIVMEIKKSPASPGNTVLRVEDLWVKDDRGLDAVKGVSFELKEGEILGIAGVQGNGQKELAEALAGIRRIEKGRIELLGRDVTELSADKRYKAGLAYVPDSRKVGLVLDMSVVENVILTNLPSVMRGRRISWEKANKIGKEIVERFDVLVSSLSTPIKHLSGGNQQKVMVGREIIREPKVVIVSEPTQGLDIGATEFIRKTLVSLRDQGKGILLISTDLDEILQLSDRIAVMYEGKIMAIGKVEEFTLEKLGLLMGGVNA”, with “not soluble”; and “MAKKKIVAVIQARMGSSRLPGKVLMTVAGKPLLEHIIDRLRRSRTLDDIVIATSDKPCDDPLVDFAQTRGVTLVRGSEDNVLLRFNKAAEEVDADVIIRVTGDAPLVDPEVMDRLVRTLLQEGAEYCTIEAGINSIHEGFCTFTRGALKRLMTEAPDDPVAIEHVTAYFIAHPDKFHIARIPVGNEHRFKGARLSVDTPADVQFFDELYRLLGVPAGDADIADVVRLLRNNPHLLQINQHVYQKKATDRSHKVLIRCDGDSRTGLGHVVRCLALAGELREKQGCGIIFAMASGEPGMKMVRQADFPLERQEDADEGEWMDGLISRHHPDVLILDIRNDLPVEKVDSWREDGILVVGIDDPTPRRLAADLLFYPPIPQISELNWNNFNGEICSGWEWVLLRKQFCAPCPPRNNNPPALLLTMGGSDPANFTVRVLRVLDELQNDFETIVVIGAGFVHEEDLQQFLSQARRHYRIEREVSDMASLMRQADLAIASFGVTAYELAASGVPAVYLCLTPDHARSASKFVDDRLAFSCGVLEECSNERIIESTLSLLDSRELRHEVGRRACATVDGYGATRIATKIVEKLERMHSSHGLEHHHHHH”, with “not soluble”; and “MSLITACPRPCAWRSYALGLGLLPLAAQAEFLADSSAHLDLRNFYQLRDYRQHDAPQSQAGNWSQGFVLRLQSGFTGGPLGFGLDATGLLGVKLDSGRGRSNDGTLPFGANSKEPVDDYSHLGLTAKLRYSQTQLQVGILMPQLPVAFRDDVRLLPQTFDGALLTSSEIEGLTLTAGQLWKSRTRESAGSDDMYIMGRDKAHASDEFNLAGATYAFTPRLSASYYYGQLKDIYRQHYLGLLHTLPLGEGLSLRSDLRYFDSGEDGAAISGPVDNRNLNAMLTLRAGAHAFGIGVQKMIGNDAFPVLNGYTTPYVANLMAYQTFTRPQEKSWQLRYDYDFAGLGLPGLNLMTRYVQGRDIDRGAGRADDSEWERNTDLSYVIQSGPLKSVALKWRNITYRSRYGADLDENRFIVNYTLKLWEGHHHHHH”, with “soluble”. In the case of “MAHHHHHHMSSITGAAYSSPEYTHCIRDSRFRHNVYEPEADTFLFLDALDKDAELLRSIRPDRCVEVGCGSGAVITHLRCLLMPSVAAAATQELEAETPELCCGASGIRSAVGGPMFCAVDVNPLALEATAITWTETLLKYFRETVLAAFYERIFQSAVPTSLAAPVVLSAEGVSPPLTRVDADDPTSSALSASTFCLHRFHGDLLNALPRGNSAPALFDVVLFNPPYVPTSLKELQDAITQRDVITTAWCGGPRGRVVLDRFLRQLPSVLSRRGVCYVVLIKENNATDVVAFAQAAFREHLRCSGTETVKDEDDVLEASEVAARYTGEHLSVYRLRYVPRFQTP”, the “soluble on expression in E. coli” value was “not soluble”.

Values taken from the DeepSol protein solubility set.
